Patent publication US20230140293A1

Key:
Assay in all cases: cell-based or functional assay
[1] = target: HIV-1 Env 426c.DM (N460D.N463D), Env-pseudotyped virus produced in 293S GnTI- cells (Man5-enriched) (HIV-1 clade C strain 426c)
[2] = target: HIV-1 Env 426c, Env-pseudotyped virus produced in 293T cells (HIV-1 clade C strain 426c)
[3] = target: HIV-1 426c.TM (N276D/N460D/N463D) Env on Env-pseudotyped virus produced in 293s/GnTI-/- cells (Man5-enrichment) (HIV-1)
[4] = target: CH0505TF Env, Env-pseudotyped virus produced in 293T cells (HIV-1)
[5] = target: HIV-1 426c.DM (N460D/N463D) Env on Env-pseudotyped virus produced in 293s/GnTI-/- cells (Man5-enrichment) (HIV-1)
[6] = target: HIV-1 426c.SM (N276D) Env on Env-pseudotyped virus produced in 293T cells (HIV-1)
[7] = target: HIV-1 Env 426c.TM (N276D.N460D.N463D), Env-pseudotyped virus produced in 293T cells (HIV-1 clade C strain 426c)
[8] = target: CH0505TF.G458Y Env, Env-pseudotyped virus produced in 293T cells (HIV-1)
[9] = target: CH0505TF.gly3.461 Env, Env-pseudotyped virus produced in 293T cells (HIV-1)
[10] = target: CH0505.w4.3 Env, Env-pseudotyped virus produced in 293T cells (HIV-1)
[11] = target: CH0505TF.G458Y Env, Env-pseudotyped virus produced in 293S GnTI- cells (Man5-enriched) (HIV-1)
[12] = target: CH0505TF.gly3.276 Env, Env-pseudotyped virus produced in 293T cells (HIV-1)
[13] = target: CH0505TF.gly3.461 Env, Env-pseudotyped virus produced in 293S GnTI- cells (Man5-enriched) (HIV-1)
[14] = target: CH0505TF Env, Env-pseudotyped virus produced in 293S GnTI- cells (Man5-enriched) (HIV-1)
[15] = target: CH0505TF.gly4 Env, Env-pseudotyped virus produced in 293S GnTI- cells (Man5-enriched) (HIV-1)
[16] = target: CH0505TF.gly3.276 Env, Env-pseudotyped virus produced in 293S GnTI- cells (Man5-enriched) (HIV-1)
[17] = target: HIV-1 clade C strain 426c Env on Env-pseudotyped virus produced in 293T cells (HIV-1)
[18] = target: HIV-1 Env 426c, Env-pseudotyped virus produced in 293S GnTI- cells (Man5-enriched) (HIV-1 clade C strain 426c)
[19] = target: HIV-1 426c.DM (N460D/N463D) Env on Env-pseudotyped virus produced in 293T cells (HIV-1)
[20] = target: HIV-1 Env 426c.SM (N276D), Env-pseudotyped virus produced in 293T cells (HIV-1 clade C strain 426c)
[21] = target: CH0505TF.gly3.197 Env, Env-pseudotyped virus produced in 293S GnTI- cells (Man5-enriched) (HIV-1)
[22] = target: CH0505TF.gly4 Env, Env-pseudotyped virus produced in 293T cells (HIV-1)
[23] = target: HIV-1 Env 426c.SM (N276D), Env-pseudotyped virus produced in 293S GnTI- cells (Man5-enriched) (HIV-1 clade C strain 426c)
[24] = target: HIV-1 Env 426c.TM4 (S278R.G471S.N460D.N463D), Env-pseudotyped virus produced in 293S GnTI- cells (Man5-enriched) (HIV-1 clade C strain 426c)
[25] = target: HIV-1 Env 426c.TM (N276D.N460D.N463D), Env-pseudotyped virus produced in 293S GnTI- cells (Man5-enriched) (HIV-1 clade C strain 426c)
[26] = target: HIV-1 426c.SM (N276D) Env on Env-pseudotyped virus produced in 293s/GnTI-/- cells (Man5-enrichment) (HIV-1)
[27] = target: HIV-1 Env 426c.DM (N460D.N463D), Env-pseudotyped virus produced in 293T cells (HIV-1 clade C strain 426c)
[28] = target: HIV-1 Env 426c.TM4 (S278R.G471S.N460D.N463D), Env-pseudotyped virus produced in 293T cells (HIV-1 clade C strain 426c)
[29] = target: HIV-1 426c.TM (N276D/N460D/N463D) Env on Env-pseudotyped virus produced in 293T cells (HIV-1)
[30] = target: HIV-1 clade C strain 426c Env on Env-pseudotyped virus produced in 293s/GnTI-/- cells (Man5-enrichment) (HIV-1)
[31] = target: CH0505TF.gly3.197 Env, Env-pseudotyped virus produced in 293T cells (HIV-1)

Substance	IC50 (µg/ml) in TZM-bl [1] [µg/mL]	IC50 (µg/ml) in TZM-bl [2] [µg/mL]	ID50/IC50 in TZM-bl [3] [µg/mL]	IC50 (µg/ml) in TZM-bl [4] [µg/mL]	ID50/IC50 in TZM-bl [5] [µg/mL]	ID50/IC50 in TZM-bl [6] [µg/mL]	IC50 (µg/ml) in TZM-bl [7] [µg/mL]	IC50 (µg/ml) in TZM-bl [8] [µg/mL]	IC50 (µg/ml) in TZM-bl [9] [µg/mL]	IC50 (µg/ml) in TZM-bl [10] [µg/mL]	IC50 (µg/ml) in TZM-bl [11] [µg/mL]	IC50 (µg/ml) in TZM-bl [12] [µg/mL]	IC50 (µg/ml) in TZM-bl [13] [µg/mL]	IC50 (µg/ml) in TZM-bl [14] [µg/mL]	IC50 (µg/ml) in TZM-bl [15] [µg/mL]	IC50 (µg/ml) in TZM-bl [16] [µg/mL]	ID50/IC50 in TZM-bl [17] [µg/mL]	IC50 (µg/ml) in TZM-bl [18] [µg/mL]	ID50/IC50 in TZM-bl [19] [µg/mL]	IC50 (µg/ml) in TZM-bl [20] [µg/mL]	other results
F105 (antibody)	> 25	> 25	> 25	> 25	> 25	> 25	> 25	> 25	> 25	10.8	> 25	> 25	> 25	> 25	> 25	> 25	> 25	> 25	> 25	> 25	IC50 (µg/ml) in TZM-bl [21]: > 25 µg/mL; IC50 (µg/ml) in TZM-bl [22]: > 25 µg/mL; IC50 (µg/ml) in TZM-bl [23]: > 25 µg/mL; IC50 (µg/ml) in TZM-bl [24]: > 25 µg/mL; IC50 (µg/ml) in TZM-bl [25]: > 25 µg/mL; ID50/IC50 in TZM-bl [26]: > 25 µg/mL; IC50 (µg/ml) in TZM-bl [27]: > 25 µg/mL; IC50 (µg/ml) in TZM-bl [28]: > 25 µg/mL; ID50/IC50 in TZM-bl [29]: > 25 µg/mL; ID50/IC50 in TZM-bl [30]: > 25 µg/mL; IC50 (µg/ml) in TZM-bl [31]: > 25 µg/mL
HJ16 (antibody)	> 25	> 25	> 25	> 25	> 25	> 25	> 25	> 25	> 25	> 25	> 25	> 25	> 25	> 25	> 25	> 25	> 25	> 25	> 25	> 25	IC50 (µg/ml) in TZM-bl [21]: > 25 µg/mL; IC50 (µg/ml) in TZM-bl [22]: > 25 µg/mL; IC50 (µg/ml) in TZM-bl [23]: > 25 µg/mL; IC50 (µg/ml) in TZM-bl [24]: > 25 µg/mL; IC50 (µg/ml) in TZM-bl [25]: > 25 µg/mL; ID50/IC50 in TZM-bl [26]: > 25 µg/mL; IC50 (µg/ml) in TZM-bl [27]: > 25 µg/mL; IC50 (µg/ml) in TZM-bl [28]: > 25 µg/mL; ID50/IC50 in TZM-bl [29]: > 25 µg/mL; ID50/IC50 in TZM-bl [30]: > 25 µg/mL; IC50 (µg/ml) in TZM-bl [31]: > 25 µg/mL
PG9 (antibody)	> 5	> 5	> 5	0.19	> 5	> 5	> 5	0.1	0.22	1.8	0.04	0.17	0.05	0.11	0.02	0.04	> 5	> 5	> 5	> 5	IC50 (µg/ml) in TZM-bl [21]: 0.06 µg/mL; IC50 (µg/ml) in TZM-bl [22]: 0.21 µg/mL; IC50 (µg/ml) in TZM-bl [23]: > 5 µg/mL; IC50 (µg/ml) in TZM-bl [24]: > 5 µg/mL; IC50 (µg/ml) in TZM-bl [25]: > 5 µg/mL; ID50/IC50 in TZM-bl [26]: > 5 µg/mL; IC50 (µg/ml) in TZM-bl [27]: > 5 µg/mL; IC50 (µg/ml) in TZM-bl [28]: > 5 µg/mL; ID50/IC50 in TZM-bl [29]: > 5 µg/mL; ID50/IC50 in TZM-bl [30]: > 5 µg/mL; IC50 (µg/ml) in TZM-bl [31]: 0.24 µg/mL
